In the supplement of paper PMC9732359:
± gives the uncertainty stated by the source.

Assay: protein stability index of a GFP-peptide fusion (yeast GPS) (PSI 1-4); higher = more stable; sorted into four equal gates, so the index is relative within each strain
How it was run: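 Tiled 17-residue peptides from yeast proteins were fused downstream of GFP on a plasmid that also expresses Cherry, and the pooled library was carried in yeast. Mid-log cultures grown in leucine-free medium were sorted into four equal gates by GFP/Cherry fluorescence ratio. Plasmids from each gate were PCR-amplified and Illumina-sequenced, and reads were assigned to strains by barcodes. Each peptide's protein stability index is the sum, over gates, of the gate's read frequency multiplied by its gate number.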

Row | Sequence | protein stability index (doa10∆) | protein stability index (pdr5∆) | protein stability index (san1∆) | protein stability index (ubr1∆)
1 | DDFFKELAKEAKKSTTI [ESC2] | 3.17 ± 0.12 | 3.09 ± 0.12 | 2.97 ± 0.094 | 3.36 ± 0.091
2 | NYELEKIADNISKDENE [YDL116W/NUP84] | 3.03 ± 0.09 | 3.04 ± 0.077 | 2.98 ± 0.048 | 3.14 ± 0.055
3 | FILTIATAFLGYCCVYG [COB] | 1.66 ± 0.098 | 1.27 ± 0.11 | 1.22 ± 0.22 | 1.36 ± 0.072
4 | SKKVTSGVPRLKEILNV [RPO21] | 1.81 ± 0.1 | 2.06 ± 0.12 | 1.55 ± 0.23 | 1.1 ± 0.083
5 | AEFKKRKIEAETRNGKV [YCS4] | 2.82 ± 0.1 | 3.18 ± 0.072 | 3.18 ± 0.1 | 3.13 ± 0.094
6 | LAASEIGISIVGRFSTI [ECM29] | 2.51 ± 0.091 | 2.95 ± 0.078 | 2.88 ± 0.073 | 2.3 ± 0.064
7 | GGVGSMGAINNNIPSLT [SNF6] | 3.26 ± 0.11 | 3.34 ± 0.09 | 3.39 ± 0.072 | 3.32 ± 0.1
8 | LESADKQLEKRDYQRIN [POP4] | 2.71 ± 0.052 | 2.72 ± 0.055 | 2.64 ± 0.065 | 3.18 ± 0.059
9 | TTIGDTTDKNTTDDKSM [BRN1] | 3.24 ± 0.082 | 3.33 ± 0.059 | 3.44 ± 0.044 | 3.27 ± 0.043
10 | DSVLQLASFEKTTDHLF [RPO31] | 2.63 ± 0.054 | 2.64 ± 0.04 | 2.83 ± 0.06 | 2.74 ± 0.041
11 | PFYGSYTETDPAKVAEE [SRP54] | 3.19 ± 0.1 | 3.01 ± 0.14 | 3.08 ± 0.055 | 2.82 ± 0.099
12 | FKRDLLREKEDKKNSSD [YJL039C/NUP192] | 3.38 ± 0.13 | 2.92 ± 0.18 | 3.23 ± 0.064 | 3 ± 0.14
13 | EIEQVCKQVHDKLTSIQ [MED7] | 2.92 ± 0.067 | 3.23 ± 0.04 | 2.92 ± 0.06 | 2.89 ± 0.055
14 | LLSSSNFEATKKSVLKQ [COR1] | 2.81 ± 0.29 |  |  | 2.83 ± 0.28
15 | KTYNKLHYCVSCAIHAR [RPS26A] | 1.21 ± 0.055 | 1.33 ± 0.087 | 1.31 ± 0.14 | 1.2 ± 0.12
16 | GAKPAGSTGGLGASFGQ [YGL172W/NUP49] | 3.38 ± 0.14 | 3.41 ± 0.24 | 3.22 ± 0.11 | 3.54 ± 0.071
17 | KEVLPDLQNLNLNTDKL [YJL039C/NUP192] | 3.38 ± 0.1 | 2.94 ± 0.098 | 3.25 ± 0.097 | 2.64 ± 0.085
18 | AIIRLHPSIYTQVFNIL [POP1] | 2.02 ± 0.051 | 1.22 ± 0.047 | 1.2 ± 0.09 | 1.22 ± 0.036
19 | LNDPSLKIQFILSTTLD [SIN4] | 1.11 ± 0.055 | 1.45 ± 0.074 | 1.32 ± 0.14 | 1.18 ± 0.042

Row | Sequence | protein stability index (doa10∆) | protein stability index (pdr5∆) | protein stability index (san1∆) | protein stability index (ubr1∆)
20 | TSKMNLSEDVNLETLVT [RPT2] | 2.6 ± 0.14 | 2.85 ± 0.16 | 2.62 ± 0.15 | 2.78 ± 0.11
21 | NILSNKPGQNNRQQKKR [RRP6] | 2.73 ± 0.18 | 3.06 ± 0.13 |  | 
22 | MSGFSLSEYLTKFQTTD [YCS4] |  |  |  | 2.9 ± 0.14
23 | RYSNLVCKKADVDLHKR [RPS18A] | 3.05 ± 0.092 | 3.38 ± 0.096 | 3.58 ± 0.13 | 2.95 ± 0.083
24 | KNTIDFERFPSPSTSAN [RPN4] | 2.87 ± 0.09 | 2.95 ± 0.064 | 2.72 ± 0.082 | 3.03 ± 0.056
25 | HDELIDSIPRDVAYLLK [YGL172W/NUP49] | 2.49 ± 0.12 | 2.82 ± 0.13 | 2.89 ± 0.055 | 3.05 ± 0.095
26 | KFRSSILRKSFDFLMNM [RPN2] | 2.1 ± 0.13 | 2.4 ± 0.1 | 2.04 ± 0.12 | 2.4 ± 0.072
27 | FSQTVADNNDLQESINH [ECM29] | 3.03 ± 0.055 | 3.08 ± 0.049 | 3.02 ± 0.047 | 3.1 ± 0.048
28 | NEPSQSLISTRNDSTVN [BRN1] | 3.16 ± 0.07 | 3.17 ± 0.086 | 3.08 ± 0.071 | 2.82 ± 0.045
29 | PYGVYHPPFIKYACLAI [SIN4] | 1.42 ± 0.048 | 1.44 ± 0.04 | 1.46 ± 0.073 | 1.17 ± 0.034
30 | NAIFLSSEQDYSTLKEL [YCG1] | 2.61 ± 0.078 | 2.6 ± 0.11 | 2.18 ± 0.18 | 2.81 ± 0.094
31 | SLDTLELESITESITHD [NUT1] | 2.57 ± 0.063 | 2.42 ± 0.046 | 2.76 ± 0.059 | 2.34 ± 0.035
32 | DFPHLTPKLQTQLSYLI [YCS4] | 2.82 ± 0.043 | 2.88 ± 0.045 | 2.79 ± 0.044 | 2.67 ± 0.038
33 | LQPPKTSSRGRDHKSYS [SMC4] | 2.9 ± 0.056 | 3.21 ± 0.061 | 3 ± 0.071 | 2.86 ± 0.049
34 | RSATGAKRAQFRKKRKF [RPS8A] | 2.94 ± 0.1 | 2.5 ± 0.085 | 3.42 ± 0.096 | 2.68 ± 0.073
35 | LLVDKDANGVSLFELIV [YJL039C/NUP192] | 3.02 ± 0.051 | 3.05 ± 0.055 | 3.07 ± 0.049 | 3.25 ± 0.037
36 | LVGSEIYEKLKNYLKNY [CDC53] |  | 1.21 ± 0.12 | 1.09 ± 0.16 | 
37 | SLRTPIAPKITPKVVRS [SEC65] | 3.16 ± 0.093 | 3.05 ± 0.063 | 2.87 ± 0.1 | 3.17 ± 0.059
38 | GFIFTSMILEAISTDKI [RRI2] | 1.35 ± 0.082 | 1.27 ± 0.072 | 1.26 ± 0.13 | 1.51 ± 0.083

Row | Sequence | protein stability index (doa10∆) | protein stability index (pdr5∆) | protein stability index (san1∆) | protein stability index (ubr1∆)
39 | HGMDFTTDKLRSMVRKW [RPS1A] | 2.42 ± 0.1 | 2.55 ± 0.1 | 2.48 ± 0.19 | 2.9 ± 0.064
40 | PKFISEALAFTSLVANE [YDL116W/NUP84] | 1.23 ± 0.067 | 1.38 ± 0.078 | 1.31 ± 0.15 | 1.11 ± 0.17
41 | LYYPQKPLGTTRAMEYL [RPB2] | 2.17 ± 0.089 | 2.9 ± 0.15 | 2.05 ± 0.14 | 2.83 ± 0.06
42 | AALRTVKSLVDNMITGV [RPL9A] | 2.5 ± 0.091 | 3.17 ± 0.076 | 2.99 ± 0.071 | 3.03 ± 0.075
43 | SEYDRGVSTFSPEGRLF [PUP2] | 3.43 ± 0.1 | 3.28 ± 0.1 | 3.32 ± 0.096 | 3.31 ± 0.065
44 | TPKLQTQLSYLISSSLS [YCS4] | 1.95 ± 0.047 | 2.14 ± 0.052 | 2 ± 0.08 | 2.09 ± 0.046
45 | TPANNGENAAEKPDNSN [SNF2] | 1.89 ± 0.075 | 2.24 ± 0.098 | 1.81 ± 0.1 | 2.71 ± 0.068
46 | YQNRSTRSQFCLNTQRG [RRI1] | 2.8 ± 0.054 | 3.09 ± 0.063 | 3.1 ± 0.046 | 2.97 ± 0.034
47 | KLLDNIQEYQLCDNFNH [COR1] | 2.35 ± 0.074 | 2.31 ± 0.091 | 2.44 ± 0.086 | 2.2 ± 0.064
48 | RQKKKPTSAQKSAVSHA [IRR1] | 1.34 ± 0.24 |  |  | 1.56 ± 0.15
49 | SNQFKRSLATAVATPKA [COR1] | 1.55 ± 0.051 | 1.75 ± 0.049 | 1.35 ± 0.089 | 1.3 ± 0.041
50 | TSTPPPPPAPHNLHPQI [SNF5] | 3.2 ± 0.058 | 3.16 ± 0.048 | 3.08 ± 0.049 | 3.14 ± 0.039
51 | HPQDFGNPGRIRVLFKE [SEC65] | 2.91 ± 0.077 | 2.94 ± 0.11 | 3.13 ± 0.065 | 3.11 ± 0.061
52 | KKIIKCDEHMGLSLAGL [PRE5] | 2.94 ± 0.079 | 3.2 ± 0.076 | 3.15 ± 0.075 | 2.94 ± 0.076
53 | VGFGESNFTSIIGPNGS [SMC1] | 3.37 ± 0.09 | 3.34 ± 0.078 | 3.15 ± 0.047 | 3.07 ± 0.054
54 | DVKVSISHDDLQAVAVA [FAS2] | 2.66 ± 0.076 | 2.6 ± 0.055 | 1.61 ± 0.065 | 2.22 ± 0.049
55 | KAEVTQLSNGIVVATEH [COR1] | 2.58 ± 0.17 | 3.15 ± 0.11 | 3.18 ± 0.18 | 2.96 ± 0.11
56 | TSIARIGDYILKSPVLS [QCR7] | 1.5 ± 0.045 | 1.72 ± 0.045 | 1.49 ± 0.075 | 1.98 ± 0.033
